Measured values reported in the supplement of paper PMC7877785.
± gives the uncertainty stated by the source.

Test: self-splicing fitness, log relative to wild type (ln ratio); higher = more splicing; Tetrahymena group I intron in knt gene, E. coli kanamycin selection, DiMSum; sequences stand for … in CUCUCU…GGAGGGAAAAGUUAUCAGGCAUGCACCUGGUAGCUAGUCUUUAAACCAAUAGAUUGCAUCGGUUUAAAAGGCAAGACCGUCAAAUUGCGGGAAAGGGGUCAACAGCCGUUCAGUACCAAGUCUCAGGGGAAACUUUGAGAUGGCCUUGCAAAGGGUAUGGUAAUAAGCUGACGGACAUGGUCCUAACCACGCAGCCAAGUCCUAAGUCAACAGAUCUUCUGUUGAUAUGGAUGCAGUUCACAGACUAAAUGUCGGUCGGGGAAGAUGUAUUCUUCUCAUAAGAUAUAGUCGGACCUCUCCUUAAUGGGAGCUAGCGGAUGAAGUGAUGCAACACUGGAGCCGCUGGGAACUAAUUUGUAUGCGAAAGUAUAUUGAUUAGUUUUGGAGUACUCGUGGUCG
How it was run: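 Colonies from six replicate transformations of E. coli BL21(DE3) were pooled and amplicon-sequenced on an Illumina HiSeq 2500. The library placed an intron with all eight P1ex-region nucleotides randomised inside the knt kanamycin-resistance gene on pET-22b(+), and cells grew overnight at 37°C or 30°C on LB agar with or without 25 μg/mL kanamycin (plus 100 μg/mL carbenicillin, 50 μM IPTG, 0.2% rhamnose). Fitness is the DiMSum error-weighted combination of wild-type-normalised replicate fold changes, kanamycin versus none.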

Sequence | self-splicing fitness (ln) (30 °C) | self-splicing fitness (ln) (37 °C)
CAGUAGCAAUAUUACGCGAU | -2.39 ± 0.28 | -2.67 ± 0.34
ACCGAGCAAUAUUACGACCG | -2.92 ± 0.22 | -1.52 ± 0.21
CUCGAGCAAUAUUACGACAC | -2.69 ± 0.27 | 
CUGAAGCAAUAUUACGAUAG | -0.213 ± 0.082 | 0.563 ± 0.11
CAUAAGCAAUAUUACGAACG | -0.246 ± 0.074 | -0.0693 ± 0.087
GACCAGCAAUAUUACGUCGC | -1.89 ± 0.1 | -0.411 ± 0.13
UUUAAGCAAUAUUACGACAC | -2.23 ± 0.44 | 
GCUGAGCAAUAUUACGAAAC | -2.42 ± 0.17 | 0.274 ± 0.14
UGGGAGCAAUAUUACGCUCG |  | -1.25 ± 0.46
UAUCAGCAAUAUUACGCCUC |  | -1.96 ± 0.47
GUGCAGCAAUAUUACGCUGC | -2.77 ± 0.18 | -2.14 ± 0.35
GGAAAGCAAUAUUACGUUCG | -0.612 ± 0.097 | -0.624 ± 0.14
AAUCAGCAAUAUUACGGCAU | -0.109 ± 0.045 | 0.27 ± 0.059
AAAGAGCAAUAUUACGUGGG | -3.99 ± 0.18 | -3.8 ± 0.2
UAACAGCAAUAUUACGAGCA | -1.22 ± 0.1 | -0.317 ± 0.1
CUAGAGCAAUAUUACGUCUA | -1.15 ± 0.12 | -0.248 ± 0.18
GGCUAGCAAUAUUACGGUGU | -0.416 ± 0.062 | 0.178 ± 0.069
CAGCAGCAAUAUUACGAUCA | -2.71 ± 0.2 | -1.88 ± 0.21
UUCCAGCAAUAUUACGGCCG | -2.49 ± 0.29 | -0.492 ± 0.24
CCACAGCAAUAUUACGCCCU | -2.75 ± 0.25 | -2.08 ± 0.23
GCCAAGCAAUAUUACGUAGC | -2.49 ± 0.14 | -1.31 ± 0.13
AGUGAGCAAUAUUACGUAUA | -2.18 ± 0.25 | -2.72 ± 0.27
GGUCAGCAAUAUUACGGUCA | -0.669 ± 0.13 | 0.518 ± 0.13
AAAAAGCAAUAUUACGUCCU | 0.148 ± 0.065 | 0.294 ± 0.079
GUAUAGCAAUAUUACGUUGG | -3.33 ± 0.31 | -1.12 ± 0.26
AUUUAGCAAUAUUACGGUGU | -2.3 ± 0.095 | -1.48 ± 0.11

Sequence | self-splicing fitness (ln) (30 °C) | self-splicing fitness (ln) (37 °C)
CGCGAGCAAUAUUACGAACU | -1.75 ± 0.18 | -0.234 ± 0.23
AUUCAGCAAUAUUACGGAUG | -0.985 ± 0.079 | -0.448 ± 0.097
UUCCAGCAAUAUUACGUUCG | -2.67 ± 0.16 | -1.7 ± 0.23
GGCUAGCAAUAUUACGUUGU | -1.59 ± 0.083 | -0.434 ± 0.11
ACCCAGCAAUAUUACGCUGU | -1.86 ± 0.075 | -0.908 ± 0.098
GCAGAGCAAUAUUACGGGAA | -2.68 ± 0.19 | -1.96 ± 0.18
UACCAGCAAUAUUACGGGAG | -1.64 ± 0.061 | -1.01 ± 0.071
AACGAGCAAUAUUACGACAU | -2.2 ± 0.015 | -1.33 ± 0.033
AAUGAGCAAUAUUACGAGUC | -4.32 ± 0.46 | -3.08 ± 0.47
GCCGAGCAAUAUUACGUCUC | -2.92 ± 0.22 | -1.44 ± 0.21
GGCGAGCAAUAUUACGGAAU | -2.91 ± 0.19 | -1.87 ± 0.21
AAGGAGCAAUAUUACGACGA | -1.94 ± 0.15 | -0.382 ± 0.11
AGUAAGCAAUAUUACGUUCA | -1.29 ± 0.095 | -0.266 ± 0.12
UAUCAGCAAUAUUACGCGGA | -0.964 ± 0.081 | -0.0724 ± 0.076
AAGGAGCAAUAUUACGUUAC |  | -1.53 ± 0.35
CGGAAGCAAUAUUACGAAGU |  | -2.81 ± 0.44
CGUGAGCAAUAUUACGAUCA | -2.06 ± 0.14 | -0.309 ± 0.12
AGCCAGCAAUAUUACGACCU | 0.00818 ± 0.069 | 0.00767 ± 0.083
GAGCAGCAAUAUUACGUCAG | -3.23 ± 0.21 | -2.12 ± 0.26
CCAUAGCAAUAUUACGACGG | -3.41 ± 0.14 | -1.67 ± 0.13
GCCGAGCAAUAUUACGGACU | -1.86 ± 0.2 | -0.863 ± 0.15
GGAAAGCAAUAUUACGUGGC | -2.85 ± 0.38 | -2.46 ± 0.34
GUGAAGCAAUAUUACGAGUG | -0.702 ± 0.094 | -0.702 ± 0.13
CCGGAGCAAUAUUACGGGAC | -3.11 ± 0.31 | -2.5 ± 0.3
CUGAAGCAAUAUUACGCACG | -0.222 ± 0.072 | -1.34 ± 0.08
GUUCAGCAAUAUUACGAUCG | -0.518 ± 0.13 | -0.548 ± 0.16

Sequence | self-splicing fitness (ln) (30 °C) | self-splicing fitness (ln) (37 °C)
UACUAGCAAUAUUACGCCAG | -0.0426 ± 0.17 | -1.03 ± 0.29
GAUCAGCAAUAUUACGAACC | -0.755 ± 0.19 | -1.48 ± 0.28
AACUAGCAAUAUUACGGAGU | -2.95 ± 0.13 | -1.42 ± 0.13
GUCGAGCAAUAUUACGCGAU | -3.36 ± 0.27 | 
CCGGAGCAAUAUUACGAGUU | -3.65 ± 0.2 | -2.76 ± 0.29
CCCGAGCAAUAUUACGGCAC |  | -2.32 ± 0.28
CACGAGCAAUAUUACGCGUG | -2.79 ± 0.19 | -2.97 ± 0.38
ACUUAGCAAUAUUACGCUAG | -2.35 ± 0.11 | -1.72 ± 0.12
GACAAGCAAUAUUACGCCAC |  | -2.64 ± 0.5
ACUAAGCAAUAUUACGACUC | -0.352 ± 0.12 | 0.402 ± 0.14
GCUGAGCAAUAUUACGACCA | -3.18 ± 0.41 | -1.57 ± 0.39
GAUGAGCAAUAUUACGUGAA | -3.72 ± 0.22 | -1.91 ± 0.2
UCUGAGCAAUAUUACGUGAU | -3.42 ± 0.23 | -1.42 ± 0.44
AACAAGCAAUAUUACGUCAA | -1.68 ± 0.094 | -1.59 ± 0.11
UUGCAGCAAUAUUACGCGUG | -3.13 ± 0.14 | -2.7 ± 0.17
UGUCAGCAAUAUUACGAGUA | -1.31 ± 0.066 | -0.775 ± 0.073
AUUUAGCAAUAUUACGCGGC |  | -2.08 ± 0.5
AGAGAGCAAUAUUACGACAU | -2.476 ± 0.019 | -1.94 ± 0.037
GUCCAGCAAUAUUACGGGGU | -3.62 ± 0.19 | -2.65 ± 0.15
AGCCAGCAAUAUUACGAACC | -0.758 ± 0.12 | -0.0185 ± 0.11
CACCAGCAAUAUUACGUUUG | -0.595 ± 0.043 | -0.00269 ± 0.064
CGAUAGCAAUAUUACGGUGA | -2.74 ± 0.2 | -1.94 ± 0.19
UGACAGCAAUAUUACGUAUG | -1.56 ± 0.058 | -0.368 ± 0.073
CCACAGCAAUAUUACGCACC | -2.62 ± 0.28 | -1.71 ± 0.28
CGUAAGCAAUAUUACGGCCA | -2.86 ± 0.42 | -1.74 ± 0.21
AAUCAGCAAUAUUACGCGUA | -0.281 ± 0.068 | 0.0946 ± 0.082
